Laboratory results reported in the supplement of paper PMC6379048.

Key:
Experiment in all cases: Kd (EC50 corrected by depletion factor)
DIS3L2 = target: T1, DIS3L2 (UniProt Q8IYB7)
T1 sequence: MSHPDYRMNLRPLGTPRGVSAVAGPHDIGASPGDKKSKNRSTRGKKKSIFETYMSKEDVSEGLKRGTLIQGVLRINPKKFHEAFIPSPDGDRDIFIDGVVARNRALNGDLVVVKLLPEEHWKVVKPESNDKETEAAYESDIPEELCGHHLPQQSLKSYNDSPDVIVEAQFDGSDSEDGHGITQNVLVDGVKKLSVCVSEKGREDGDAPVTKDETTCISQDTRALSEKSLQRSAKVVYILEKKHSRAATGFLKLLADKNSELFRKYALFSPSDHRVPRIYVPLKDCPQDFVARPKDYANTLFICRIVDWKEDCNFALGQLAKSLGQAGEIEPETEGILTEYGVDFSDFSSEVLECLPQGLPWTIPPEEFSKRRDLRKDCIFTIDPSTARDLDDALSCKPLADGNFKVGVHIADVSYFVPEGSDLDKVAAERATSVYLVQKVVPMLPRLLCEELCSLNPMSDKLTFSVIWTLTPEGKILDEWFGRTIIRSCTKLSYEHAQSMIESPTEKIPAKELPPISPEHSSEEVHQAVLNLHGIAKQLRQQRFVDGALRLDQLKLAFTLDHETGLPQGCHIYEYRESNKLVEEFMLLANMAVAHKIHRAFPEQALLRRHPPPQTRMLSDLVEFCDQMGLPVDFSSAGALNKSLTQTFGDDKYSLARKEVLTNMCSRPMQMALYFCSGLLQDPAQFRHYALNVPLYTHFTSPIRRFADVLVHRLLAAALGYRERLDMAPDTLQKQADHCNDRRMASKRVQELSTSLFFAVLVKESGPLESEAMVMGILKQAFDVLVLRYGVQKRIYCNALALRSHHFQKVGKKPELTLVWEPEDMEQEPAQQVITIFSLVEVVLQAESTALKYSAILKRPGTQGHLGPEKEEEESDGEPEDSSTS
Method: (§1)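 Competition-binding assay: HEK293-FT cell lysate (2.5 mg protein) pre-incubated 1 h at 4°C with free motif-containing RNA oligos (0 to 30 µM, 12 doses), then pulled down with the same 5'-amino-C6 RNA oligos immobilised on NHS-Sepharose beads (30 min, 4°C). Bound proteins were quantified by label-free LC-MS/MS and normalised to the water control. EC50 came from a four-parameter log-logistic fit; Kd = EC50 x depletion factor. Random/reversed control probes are dropped.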

NKRF = target: T2, NKRF (UniProt O15226)
T2 sequence: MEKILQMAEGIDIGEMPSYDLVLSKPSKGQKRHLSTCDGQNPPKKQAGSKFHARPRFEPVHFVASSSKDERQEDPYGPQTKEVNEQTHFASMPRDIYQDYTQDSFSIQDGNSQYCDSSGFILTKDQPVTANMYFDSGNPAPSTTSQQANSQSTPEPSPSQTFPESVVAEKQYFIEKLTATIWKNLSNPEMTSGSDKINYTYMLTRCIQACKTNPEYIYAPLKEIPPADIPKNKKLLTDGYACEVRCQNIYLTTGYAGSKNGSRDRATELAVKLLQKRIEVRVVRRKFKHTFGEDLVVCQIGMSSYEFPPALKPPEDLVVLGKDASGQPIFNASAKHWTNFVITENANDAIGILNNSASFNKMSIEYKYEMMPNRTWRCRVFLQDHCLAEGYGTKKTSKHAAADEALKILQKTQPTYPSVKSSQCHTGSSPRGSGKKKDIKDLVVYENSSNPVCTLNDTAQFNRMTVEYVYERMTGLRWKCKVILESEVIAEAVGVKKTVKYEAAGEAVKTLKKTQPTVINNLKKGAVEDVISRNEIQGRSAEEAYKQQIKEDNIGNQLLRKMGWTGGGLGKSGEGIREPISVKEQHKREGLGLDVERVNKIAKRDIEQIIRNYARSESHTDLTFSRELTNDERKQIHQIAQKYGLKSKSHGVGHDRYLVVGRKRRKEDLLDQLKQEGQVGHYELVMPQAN
Method: as §1

PHAX = PHAX (UniProt Q9H814)
Method: as §1

SSB = target: T3, SSB (UniProt P05455)
T3 sequence: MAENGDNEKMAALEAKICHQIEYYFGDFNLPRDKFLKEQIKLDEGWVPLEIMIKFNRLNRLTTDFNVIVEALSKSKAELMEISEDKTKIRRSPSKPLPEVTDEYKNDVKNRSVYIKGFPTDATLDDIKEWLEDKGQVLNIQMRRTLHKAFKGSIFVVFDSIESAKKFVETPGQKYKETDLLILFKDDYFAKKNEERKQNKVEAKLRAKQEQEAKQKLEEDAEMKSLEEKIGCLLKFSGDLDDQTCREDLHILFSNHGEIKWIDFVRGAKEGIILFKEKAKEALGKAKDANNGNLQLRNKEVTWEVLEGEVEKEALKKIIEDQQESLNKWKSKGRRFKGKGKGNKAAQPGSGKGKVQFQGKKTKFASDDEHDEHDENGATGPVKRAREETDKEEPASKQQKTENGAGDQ
Method: as §1

Sequence of PHAX (Q9H814 whole entry): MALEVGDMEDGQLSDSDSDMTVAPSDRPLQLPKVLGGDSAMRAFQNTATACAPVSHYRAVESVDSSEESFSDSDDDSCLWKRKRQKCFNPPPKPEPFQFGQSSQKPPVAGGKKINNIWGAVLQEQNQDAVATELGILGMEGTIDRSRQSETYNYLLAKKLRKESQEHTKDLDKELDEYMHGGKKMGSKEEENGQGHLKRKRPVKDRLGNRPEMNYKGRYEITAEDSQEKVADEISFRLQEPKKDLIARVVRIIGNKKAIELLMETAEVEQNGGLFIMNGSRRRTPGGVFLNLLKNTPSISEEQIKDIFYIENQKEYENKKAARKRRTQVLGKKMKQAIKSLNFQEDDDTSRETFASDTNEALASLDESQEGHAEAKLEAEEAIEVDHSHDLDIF

Row | Sequence | Kd (DIS3L2) [nM] | Kd (NKRF) [nM] | Kd (PHAX) [nM] | Kd (SSB) [nM]
1 | AAUAAA | 383 | 222 | 15500 | 365
2 | CUGUCCU | 774 | 298 | 533 | 1060
3 | UAUUUAU | 290 | 223 | 5070 | 289
